B1: Hex-[Cys(tMeBn(GaDOTA-PP))-Pro-Pro-Thr-Gln-Phe-Cys]-Asp-NH2 (3BP-3592) (peptide)
peptide: CPPTQFCD
modifications: N-terminal hexanoyl (Hex); Cys1 and Cys7 cyclised through tMeBn carrying GaDOTA-PP (gallium complex); C-terminal amide
B2: Hex-[Cys(tMeBn(InDOTA-PP))-Pro-Pro-Thr-Gln-Phe-Cys]-Asp-NH2 (3BP-3590) (peptide)
peptide: CPPTQFCD
modifications: N-terminal hexanoyl (Hex); Cys1 and Cys7 cyclised through tMeBn carrying InDOTA-PP (indium complex); C-terminal amide
B3: Hex-[Cys(tMeBn(EuDOTA-PP))-Pro-Pro-Thr-Gln-Phe-Cys]-Asp-NH2 (3BP-3661) (peptide)
peptide: CPPTQFCD
modifications: N-terminal hexanoyl (Hex); Cys1 and Cys7 cyclised through tMeBn carrying EuDOTA-PP (europium complex); C-terminal amide
B4: Hex-[Cys(tMeBn(DOTA-PP))-Pro-Pro-Thr-Gln-Phe-Cys]-Asp-NH2 (3BP-3407) (peptide)
peptide: CPPTQFCD
modifications: N-terminal hexanoyl (Hex); Cys1 and Cys7 cyclised through tMeBn carrying DOTA-PP; C-terminal amide
B5: Hex-[Cys(tMeBn(LuDOTA-PP))-Pro-Pro-Thr-Gln-Phe-Cys]-Asp-NH2 (3BP-3591) (peptide)
peptide: CPPTQFCD
modifications: N-terminal hexanoyl (Hex); Cys1 and Cys7 cyclised through tMeBn carrying LuDOTA-PP (lutetium complex); C-terminal amide
B6: Hex-[Cys(tMeBn(DOTA-AET))-Pro-Pro-Thr-Gln-Phe-Cys]-OH (3BP-3554) (peptide)
peptide: CPPTQFC
modifications: N-terminal hexanoyl (Hex); Cys1 and Cys7 cyclised through tMeBn carrying DOTA-AET; free C-terminal acid (-OH)
B7: Hex-[Cys(tMeBn(InDOTA-AET))-Pro-Pro-Thr-Gln-Phe-Cys]-OH (3BP-3623) (peptide)
peptide: CPPTQFC
modifications: N-terminal hexanoyl (Hex); Cys1 and Cys7 cyclised through tMeBn carrying InDOTA-AET (indium complex); free C-terminal acid (-OH)
B8: Hex-[Cys(tMeBn(LuDOTA-AET))-Pro-Pro-Thr-Gln-Phe-Cys]-OH (3BP-3624) (peptide)
peptide: CPPTQFC
modifications: N-terminal hexanoyl (Hex); Cys1 and Cys7 cyclised through tMeBn carrying LuDOTA-AET (lutetium complex); free C-terminal acid (-OH)
B9: Hex-[Cys(tMeBn(GaDOTA-AET))-Pro-Pro-Thr-Gln-Phe-Cys]-OH (3BP-3949) (peptide)
peptide: CPPTQFC
modifications: N-terminal hexanoyl (Hex); Cys1 and Cys7 cyclised through tMeBn carrying GaDOTA-AET (gallium complex); free C-terminal acid (-OH)

What follows are binders tested against human fibroblast activation protein (FAP) on human WI-38 fibroblasts (human) (assay: competitive FACS binding on FAP-expressing WI-38 cells against 3 nM Cy5-labeled compound; category A = pIC50 values >8.0).

Q: For B1, which “pIC50 Category (FACS)” value is on record?
A: > 8 pIC50

Q: For B2, which “pIC50 Category (FACS)” value is on record?
A: > 8 pIC50

Q: Which “pIC50 Category (FACS)” value does the source give for B3 here?
A: > 8 pIC50

Q: How did the “pIC50 Category (FACS)” value turn out when B4 was run?
A: > 8 pIC50

Q: How did the “pIC50 Category (FACS)” value turn out when B5 was run?
A: > 8 pIC50

These binders were tested against Recombinant human FAP (R&D systems, #3715-SE) (human) (assay: SPR (Biacore T200), rhFAP captured by anti-FAP antibody, single cycle kinetics; category A = pKD values >8.0).
Chain of Recombinant human FAP (R&D systems, #3715-SE) (human) (chain, as listed by the source limits assumed): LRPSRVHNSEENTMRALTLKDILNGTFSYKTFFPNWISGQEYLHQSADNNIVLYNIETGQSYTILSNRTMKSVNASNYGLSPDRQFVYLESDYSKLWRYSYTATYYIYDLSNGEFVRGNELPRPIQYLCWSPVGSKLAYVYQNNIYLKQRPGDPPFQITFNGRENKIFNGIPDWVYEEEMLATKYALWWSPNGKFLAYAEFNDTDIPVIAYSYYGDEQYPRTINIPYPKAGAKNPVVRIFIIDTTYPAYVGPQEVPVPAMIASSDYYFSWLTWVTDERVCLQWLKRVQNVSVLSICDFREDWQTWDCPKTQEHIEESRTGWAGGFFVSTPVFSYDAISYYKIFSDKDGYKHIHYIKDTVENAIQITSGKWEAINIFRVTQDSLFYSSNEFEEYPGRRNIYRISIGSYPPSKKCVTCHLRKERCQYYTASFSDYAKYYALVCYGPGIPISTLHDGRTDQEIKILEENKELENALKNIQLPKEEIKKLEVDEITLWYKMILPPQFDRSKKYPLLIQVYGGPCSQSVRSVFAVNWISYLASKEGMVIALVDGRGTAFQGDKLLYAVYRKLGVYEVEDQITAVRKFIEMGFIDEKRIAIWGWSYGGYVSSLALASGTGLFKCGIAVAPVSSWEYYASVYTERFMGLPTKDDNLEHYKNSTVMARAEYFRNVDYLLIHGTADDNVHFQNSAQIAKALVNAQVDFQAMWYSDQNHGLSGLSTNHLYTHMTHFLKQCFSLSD

Q: B1 was tested. Which “pKD Category” value did it give?
A: > 8 pKD

Q: B2 was tested. Which “pKD Category” value did it give?
A: > 8 pKD

Q: With B6 as the binder, how does the “pKD Category” value read?
A: > 8 pKD

Q: With B4 as the binder, how does the “pKD Category” value read?
A: > 8 pKD

Q: With B7 as the binder, how does the “pKD Category” value read?
A: > 8 pKD

Q: How did the “pKD Category” value turn out when B8 was run?
A: > 8 pKD

Q: With B9 as the binder, how does the “pKD Category” value read?
A: > 8 pKD

Q: For B5, which “pKD Category” value is on record?
A: > 8 pKD
